Laboratory results reported in article PMC7445246 (Signal Transduction and Targeted Therapy, 2020).

How the values were obtained:
Conditions in all cases: both partners purified
recombinant human PD-L1 [1] = target: T1, recombinant human PD-L1 (Homo sapiens, UniProt Q9NZQ7); test: SPR; JS003 captured on biosensor; association with recombinant human PD-L1 at pH 7.4; dissociation followed at pH 6.0 (compared with pH 7.4)
T1 construct: PD-L1, human; the methods are probably in the supplementary material; In the internalization assay hPD-L1 was expressed on CHO-K1 cells; also called hPD-L1
T1 sequence (Q9NZQ7 19-290): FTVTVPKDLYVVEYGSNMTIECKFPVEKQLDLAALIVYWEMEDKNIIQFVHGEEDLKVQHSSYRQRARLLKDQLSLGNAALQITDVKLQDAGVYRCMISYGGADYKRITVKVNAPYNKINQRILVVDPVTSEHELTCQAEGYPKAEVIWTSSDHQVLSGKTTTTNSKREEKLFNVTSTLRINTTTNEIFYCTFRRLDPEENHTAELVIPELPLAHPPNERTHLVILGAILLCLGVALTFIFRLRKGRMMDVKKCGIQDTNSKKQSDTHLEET

recombinant human PD-L1 [2] = target: T1, recombinant human PD-L1; test: SPR; JS003 captured on biosensor; association with recombinant human PD-L1 at pH 7.4; dissociation followed at pH 5.5 (compared with pH 7.4)
recombinant human PD-L1 [3] = target: T1, recombinant human PD-L1; test: SPR; JS003 immobilized on the chip; serial dilutions of PD-L1 from 0.75 nM to 24 nM flowed through

- fold faster dissociation rate at pH 6.0 than at pH 7.4 (recombinant human PD-L1 [1]): 3.4 fold
- fold faster dissociation rate at pH 5.5 than at pH 7.4 (recombinant human PD-L1 [2]): 8.7 fold
- Kd (recombinant human PD-L1 [3]): 0.288 nM
B1: JS003 (antibody, V domains shown)
VH: QGQLQESGPSLVKPSQTLSLTCTVSGDSITRGYWNWIRKHPGKGLEYIGYISYTGSTYSNLSLKSRVTISRDTSKNQYYLKLSSVTAADTAVYYCATSTGWLDPVDYWGQGTLVTVSS
VL: DIVMTQSPDSLAVSLGERATINCKASQNVDTSVAWFQQKPGQPPKALIYSASFRYSGVPDRFSGSGSGTDFTLTISSLQAEDVAVYFCQQYYGYPFTFGQGTKLEIK
notes: humanized PD-L1 specific mAb; Fab part as the heavy chain of m2; as the light chain of m2; Whole humanized mAb; Labelled with CypHer5E in the internalization assay only; also called JS003 antibodies
